# In publication PMC4783047, “Determinants of Amyloid Formation for the Yeast Termination Factor Nab3” (PLoS ONE, 2016):
# B1: Pcf11 low complexity domain (residues 228-287) (domain or fragment, yeast, UniProt P39081 228-287, looked up)
# chain: MRYHELQQQQQQQQQQQQQQQQQQQQYHETKDMVGSYTQNSNSAIPLFGNNSDTTNQQNS
# notes: Pcf11, yeast transcription termination factor, codon 228 to codon 287 (core prion-like domain as defined by Alberti et al.); Inserted between the BglII and XhoI sites of pET32a; also called Pcf11 LCD; Pcf11's LCD; source: E. coli, pET32-Pcf11-LCD (synthetic gene), thioredoxin fusion, purified (HisTrap, thrombin cleavage, second HisTrap)
# B2: Nab3 low complexity domain, C-terminal 134 amino acids of Nab3 (Nab3^134) (domain or fragment, S. cerevisiae, UniProt P38996 669-802, looked up)
# chain: SQTPMDQQQLLSAIQNLPPNVVSNLLSMAQQQQQQPHAQQQLVGLIQSMQGQAPQQQQQQLGGYSSMNSSSPPPMSTNYNGQNISAKPSAPPMSHQPPPPQQQQQQQQQQQQQQQQPAGNNVQSLLDSLAKLQK
# notes: Inserted between the BglII and XhoI sites of pET32a; also called Nab3 LCD; wildtype LCD
# B3: Nab3^134 with the last 18 amino acids of Nab3 deleted (Nab3^134Δα) (domain or fragment, S. cerevisiae, UniProt P38996 669-784, looked up)
# chain: SQTPMDQQQLLSAIQNLPPNVVSNLLSMAQQQQQQPHAQQQLVGLIQSMQGQAPQQQQQQLGGYSSMNSSSPPPMSTNYNGQNISAKPSAPPMSHQPPPPQQQQQQQQQQQQQQQQ
# notes: Same vector as m1, so an S-tag is probably left after thrombin cleavage
# B4: Full-length Nab3 (natural protein, S. cerevisiae, UniProt P38996 1-802, looked up)
# chain: MSDENHNSDVQDIPSPELSVDSNSNENELMNNSSADDGIEFDAPEEEREAEREEENEEQHELEDVNDEEEEDKEEKGEENGEVINTEEEEEEEHQQKGGNDDDDDDNEEEEEEEEDDDDDDDDDDDDEEEEEEEEEEGNDNSSVGSDSAAEDGEDEEDKKDKTKDKEVELRRETLEKEQKDVDEAIKKITREENDNTHFPTNMENVNYDLLQKQVKYIMDSNMLNLPQFQHLPQEEKMSAILAMLNSNSDTALSVPPHDSTISTTASASATSGARSNDQRKPPLSDAQRRMRFPRADLSKPITEEEHDRYAAYLHGENKITEMHNIPPKSRLFIGNLPLKNVSKEDLFRIFSPYGHIMQINIKNAFGFIQFDNPQSVRDAIECESQEMNFGKKLILEVSSSNARPQFDHGDHGTNSSSTFISSAKRPFQTESGDMYNDDNGAGYKKSRRHTVSCNIFVKRTADRTYAIEVFNRFRDGTGLETDMIFLKPRMELGKLINDAAYNGVWGVVLVNKTHNVDVQTFYKGSQGETKFDEYISISADDAVAIFNNIKNNRNNSRPTDYRAMSHQQNIYGAPPLPVPNGPAVGPPPQTNYYQGYSMPPPQQQQQQPYGNYGMPPPSHDQGYGSQPPIPMNQSYGRYQTSIPPPPPQQQIPQGYGRYQAGPPPQPPSQTPMDQQQLLSAIQNLPPNVVSNLLSMAQQQQQQPHAQQQLVGLIQSMQGQAPQQQQQQLGGYSSMNSSSPPPMSTNYNGQNISAKPSAPPMSHQPPPPQQQQQQQQQQQQQQQQPAGNNVQSLLDSLAKLQK
# notes: Nab3, S. cerevisiae transcription termination factor, 802 amino acids; also called full-length wildtype Nab3; the entire 802-residue protein
# Columns and labels:
# thioflavin T = assay: Thioflavin T fluorescence; conditions: value read at the wild-type emission peak, about 480 nm; the mutant trace lies on the zero line over the whole 460-595 nm spectrum; parent: est. 66; read off a plot
# [1] = biological target: the molecule itself; assay: transmission electron microscopy of filaments (negative stain); purified, concentrated protein left undisturbed (4°C, or 4°C or 22°C for the LCD proteins) for days to weeks; 1% phosphotungstic acid stain; self-assembly into filaments
Molecule,response (thioflavin T),binding result [1]
"Nab3 low complexity domain, C-terminal 134 amino acids of Nab3 (Nab3^134) (from UniProt P38996) Q2E; Q7E; Q9E; Q15E; Q30E; Q32E; Q34E; Q39E; Q41E; Q47E; Q50E; Q52E; Q55E; Q57E; Q59E; Q82E; Q96E; Q101E; Q105E; Q107E; Q109E; Q111E; Q113E; Q115E",0,–
B1,–,binds
B2,–,binds
B3,–,binds
B4,–,binds
